For 19 molecules, Kd results are on record in patent US20260297187 (published 2026).

Read-outs that look alike come from different tables or passages of the source.

What all share (experiment): BLI
The target of test [1] is T1, CEACAM1-his (human).
T1 chain: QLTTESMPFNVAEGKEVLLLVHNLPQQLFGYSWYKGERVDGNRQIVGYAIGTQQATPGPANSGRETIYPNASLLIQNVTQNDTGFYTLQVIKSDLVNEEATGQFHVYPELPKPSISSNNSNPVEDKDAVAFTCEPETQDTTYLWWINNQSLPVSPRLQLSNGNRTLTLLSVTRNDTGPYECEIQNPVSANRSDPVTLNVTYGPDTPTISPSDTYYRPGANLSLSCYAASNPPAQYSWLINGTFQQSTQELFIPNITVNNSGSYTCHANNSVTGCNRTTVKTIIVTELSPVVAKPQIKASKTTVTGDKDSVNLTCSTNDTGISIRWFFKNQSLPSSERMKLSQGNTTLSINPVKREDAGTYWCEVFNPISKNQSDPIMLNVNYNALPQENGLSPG

Test [2] has as its target T1, CEACAM1-his.
Test [3] concerns the target T1, CEACAM1-his.
In test [4] the target is T1, CEACAM1-his.
Test [5] concerns the target T1, CEACAM1-his.

B1: P23B6 (antibody, V domains shown)
VH: QVQLLQPGAEPVKPGTSVKLSCKASGYNFTSYWLNWVKLRPGQGLEWIGDIHPGRGSINYNEKFKSKAILTVDTSSRTAYIQLSSLASEDSALYYCARADGSWFVYWGQGTLVTVSA
VL: DIVLTQSPASLAVSLGQRATISCRASQSVSTSSYSYMHWYQQKPGQPPKLLIKYASNLESGVPARFSGSGSGTDFTLNIHPVEEEDTATYYCQHSWEIPWTFGGGTKLEIK
By Kd is commonly meant the concentration at which binding is half-saturated. Read a low Kd as higher affinity. For B1, the affinity with CEACAM1-his [1], expressed as Kd, was 6.31 nM.

B2: 4H11 (antibody, V domains shown)
VH: QIQLVQSGPELKKPGETVKISCKASGYTLTDYGMNWVSQAPGKGLKWVGWINTYTGEPTYADDFKGRFAFSLDTSASTAYLQINNLKNEDTATYFCARKNIYGYFDVWGAGTTVTVSS
VL: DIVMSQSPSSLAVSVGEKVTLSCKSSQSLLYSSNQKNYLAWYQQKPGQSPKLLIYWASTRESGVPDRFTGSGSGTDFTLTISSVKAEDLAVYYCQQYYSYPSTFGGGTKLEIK
On to B2, for which, in the test with CEACAM1-his [1], the Kd was found to be 3.51 nM.

B3: 2G12 (antibody, V domains shown)
VH: QIQLVQSGPELKKPGETVKISCKASGYSFTHHGMNWVKQAPGKDLKWMGWINTYTGEPTYADDFRGRFAFSLETSASTAYLQINNLKSEDTATYFCARKDYYISGNFDYWGQGTTLTVSS
VL: DIQMTQSPSSLSASLGERVSLTCRASQDIGSNLNWLQQEPDGTIKRLIYATSSLDSGVPKRFSGSRSGSDYSLTISSLESEDFVDYYCLQYASSPYTFGGGTKLEIK
Molecule B3 displayed a Kd with CEACAM1-his [1] of 2.19 nM.

B4: 5D5.G4 (antibody, V domains shown)
VH: QIQLVQSGPELKKPGETVKISCKASGYTLTNYGMNWVKQAPGTDLKWMGWINTYTGEPTYADDFKGRFAFSLETSASTAYLQINNLKNEDTATYFCARKDYYVSGNFDYWGQGTTLTVSS
VL: DIQMTQSPSSLSASLGERVSLTCRASQDIGSNLNWLQQEPDGTIKRLIYATSSLDSGVPKRFSGSRSGSDYSLTISSLESEDFVDYYCLQYASSPYTFGGGTKLEIK
In the case of B4, the Kd with CEACAM1-his [1] amounted to 2.11 nM.

B5: 4D10.G4 (antibody, V domains shown)
VH: EVQLQQSGPELVKPGASVKMSCKASGYTFSSYVIHWVRQKPGQGLEWIGYFNPYNNGTNYNENFKGKATLTSGKSSSTAYMELSSLTSEDSAVYYCARYYYASGSLYFDYWGQGTTLTVSS
VL: EIVLTQSPAIATASLGQKVTITCSASSSVSYMHWYQQKSGTSPKPWIYEISKLASGVPTRFSGSGSGTSYSLTISSMEAEDAAIYYCQQWNYPLITFGAGTKLELK
For B5, the figures for the Kd in the test with CEACAM1-his [1] and with CEACAM1-his [2] were 1.89 nM and 1.82 nM, respectively.

B6: h4D10.G4.H4(N56Q Y100F)L2(S28F S51M) (antibody, V domains shown)
VH: QVQLVQSGAEVKKPGASVKVSCKASGYTFSSYVIHWVRQAPGQGLEWMGYFNPYNQGTNYNENFKGRVTMTADTSTSTVYMELSSLRSEDTAVYYCARYFYASGSLYFDYWGQGTTVTVSS
VL: DIQMTQSPSTLSASVGDRVTITCSASSFVSYMHWYQQKPGKAPKPLIYEIMKLASGVPSRFSGSGSGTEFTLTISSLQPDDAATYYCQQWNYPLITFGGGTKVEIK
Molecule B6 gave a Kd with CEACAM1-his [3] of 0.362 nM.

B7: h4D10.G4.H4(N56Q Y100F)L2(S51M) (antibody, V domains shown)
VH: QVQLVQSGAEVKKPGASVKVSCKASGYTFSSYVIHWVRQAPGQGLEWMGYFNPYNQGTNYNENFKGRVTMTADTSTSTVYMELSSLRSEDTAVYYCARYFYASGSLYFDYWGQGTTVTVSS
VL: DIQMTQSPSTLSASVGDRVTITCSASSSVSYMHWYQQKPGKAPKPLIYEIMKLASGVPSRFSGSGSGTEFTLTISSLQPDDAATYYCQQWNYPLITFGGGTKVEIK
B7 yielded a Kd with CEACAM1-his [3] of 0.784 nM. This Kd lies about 2.2-fold higher than the previous one.

B8: h4D10.G4.H4(N56Q Y100F)L2(S28F K52R) (antibody, V domains shown)
VH: QVQLVQSGAEVKKPGASVKVSCKASGYTFSSYVIHWVRQAPGQGLEWMGYFNPYNQGTNYNENFKGRVTMTADTSTSTVYMELSSLRSEDTAVYYCARYFYASGSLYFDYWGQGTTVTVSS
VL: DIQMTQSPSTLSASVGDRVTITCSASSFVSYMHWYQQKPGKAPKPLIYEISRLASGVPSRFSGSGSGTEFTLTISSLQPDDAATYYCQQWNYPLITFGGGTKVEIK
Take B8: the Kd with CEACAM1-his [3] was found to be 0.268 nM.

B9: h4D10.G4.H4(N56Q Y100F)L2(S28H) (antibody, V domains shown)
VH: QVQLVQSGAEVKKPGASVKVSCKASGYTFSSYVIHWVRQAPGQGLEWMGYFNPYNQGTNYNENFKGRVTMTADTSTSTVYMELSSLRSEDTAVYYCARYFYASGSLYFDYWGQGTTVTVSS
VL: DIQMTQSPSTLSASVGDRVTITCSASSHVSYMHWYQQKPGKAPKPLIYEISKLASGVPSRFSGSGSGTEFTLTISSLQPDDAATYYCQQWNYPLITFGGGTKVEIK
On to B9, for which the affinity with CEACAM1-his [3], expressed as Kd, was 0.956 nM.

B10: h4D10.G4.H4(H35M N56Q Y100F)L2 (antibody, V domains shown)
VH: QVQLVQSGAEVKKPGASVKVSCKASGYTFSSYVIMWVRQAPGQGLEWMGYFNPYNQGTNYNENFKGRVTMTADTSTSTVYMELSSLRSEDTAVYYCARYFYASGSLYFDYWGQGTTVTVSS
VL: DIQMTQSPSTLSASVGDRVTITCSASSSVSYMHWYQQKPGKAPKPLIYEISKLASGVPSRFSGSGSGTEFTLTISSLQPDDAATYYCQQWNYPLITFGGGTKVEIK
Regarding B10, in the test with CEACAM1-his [3], binding was put at a Kd of 0.394 nM.

B11: h4D10.G4.H4(N56Q Y100F)L2(S28F) (antibody, V domains shown)
VH: QVQLVQSGAEVKKPGASVKVSCKASGYTFSSYVIHWVRQAPGQGLEWMGYFNPYNQGTNYNENFKGRVTMTADTSTSTVYMELSSLRSEDTAVYYCARYFYASGSLYFDYWGQGTTVTVSS
VL: DIQMTQSPSTLSASVGDRVTITCSASSFVSYMHWYQQKPGKAPKPLIYEISKLASGVPSRFSGSGSGTEFTLTISSLQPDDAATYYCQQWNYPLITFGGGTKVEIK
Take B11: in the test with CEACAM1-his [3], the Kd was 0.3 nM.

B12: h4D10.G4.H4(N56Q Y100F)L2(K52R) (antibody, V domains shown)
VH: QVQLVQSGAEVKKPGASVKVSCKASGYTFSSYVIHWVRQAPGQGLEWMGYFNPYNQGTNYNENFKGRVTMTADTSTSTVYMELSSLRSEDTAVYYCARYFYASGSLYFDYWGQGTTVTVSS
VL: DIQMTQSPSTLSASVGDRVTITCSASSSVSYMHWYQQKPGKAPKPLIYEISRLASGVPSRFSGSGSGTEFTLTISSLQPDDAATYYCQQWNYPLITFGGGTKVEIK
B12: in the test with CEACAM1-his [3], the Kd was found to be 0.801 nM.

B13: h4D10.G4.H4(N56V Y100V)L2 (antibody, V domains shown)
VH: QVQLVQSGAEVKKPGASVKVSCKASGYTFSSYVIHWVRQAPGQGLEWMGYFNPYNVGTNYNENFKGRVTMTADTSTSTVYMELSSLRSEDTAVYYCARYVYASGSLYFDYWGQGTTVTVSS
VL: DIQMTQSPSTLSASVGDRVTITCSASSSVSYMHWYQQKPGKAPKPLIYEISKLASGVPSRFSGSGSGTEFTLTISSLQPDDAATYYCQQWNYPLITFGGGTKVEIK
B13 registered a Kd with CEACAM1-his [2] of 4.67 nM.

B14: h4D10.G4.H4(N56I Y100F)L2 (antibody, V domains shown)
VH: QVQLVQSGAEVKKPGASVKVSCKASGYTFSSYVIHWVRQAPGQGLEWMGYFNPYNIGTNYNENFKGRVTMTADTSTSTVYMELSSLRSEDTAVYYCARYFYASGSLYFDYWGQGTTVTVSS
VL: DIQMTQSPSTLSASVGDRVTITCSASSSVSYMHWYQQKPGKAPKPLIYEISKLASGVPSRFSGSGSGTEFTLTISSLQPDDAATYYCQQWNYPLITFGGGTKVEIK
Consider B14, for which the affinity in the test with CEACAM1-his [2], expressed as Kd, was 3.14 nM. This Kd and that of the molecule before are within 1.5-fold of each other.

B15: h4D10.G4.H4(N56Q Y100W)L2 (antibody, V domains shown)
VH: QVQLVQSGAEVKKPGASVKVSCKASGYTFSSYVIHWVRQAPGQGLEWMGYFNPYNQGTNYNENFKGRVTMTADTSTSTVYMELSSLRSEDTAVYYCARYWYASGSLYFDYWGQGTTVTVSS
VL: DIQMTQSPSTLSASVGDRVTITCSASSSVSYMHWYQQKPGKAPKPLIYEISKLASGVPSRFSGSGSGTEFTLTISSLQPDDAATYYCQQWNYPLITFGGGTKVEIK
In turn, B15 had a Kd in the test with CEACAM1-his [2] of 3.65 nM. This Kd and that of the molecule before are within 1.5-fold of each other.

B16: h4D10.G4.H4(N56Q Y100F)L2(S28F S51M K52R) (antibody, V domains shown)
VH: QVQLVQSGAEVKKPGASVKVSCKASGYTFSSYVIHWVRQAPGQGLEWMGYFNPYNQGTNYNENFKGRVTMTADTSTSTVYMELSSLRSEDTAVYYCARYFYASGSLYFDYWGQGTTVTVSS
VL: DIQMTQSPSTLSASVGDRVTITCSASSFVSYMHWYQQKPGKAPKPLIYEIMRLASGVPSRFSGSGSGTEFTLTISSLQPDDAATYYCQQWNYPLITFGGGTKVEIK
With B16, in the test with CEACAM1-his [3], the Kd stood at 0.151 nM.

B17: h4D10.G4.H4(N56I Y100W)L2 (antibody, V domains shown)
VH: QVQLVQSGAEVKKPGASVKVSCKASGYTFSSYVIHWVRQAPGQGLEWMGYFNPYNIGTNYNENFKGRVTMTADTSTSTVYMELSSLRSEDTAVYYCARYWYASGSLYFDYWGQGTTVTVSS
VL: DIQMTQSPSTLSASVGDRVTITCSASSSVSYMHWYQQKPGKAPKPLIYEISKLASGVPSRFSGSGSGTEFTLTISSLQPDDAATYYCQQWNYPLITFGGGTKVEIK
On to B17, for which the Kd in the test with CEACAM1-his [2] was 5.41 nM.

B18: h9D12.G4.H0aL7 (antibody, V domains shown)
VH: EVQLVQSGAEVKKPGATVKISCKVSGFNIKDTYMHWVQQAPGKGLEWMGRIDLASGDSKYDPKFQGRVTITADTSTDTAYMELSSLRSEDTAVYYCARAHFGGGNWYFDVWGQGTTVTVSS
VL: DIQLTQSPSFLSASVGDRVTITCSASSSVSYMHWYQQKPGQAPKPWIYEISKLASGVPSRFSGSGSGTEYTLTISSMQSEDFAVYYCQQWNYPLTFGQGTKLEIK
In the case of B18, the Kd with CEACAM1-his [4] and with CEACAM1-his [5] was 3.39 nM each time.

B19: h9D12.G4.H4L7 (antibody, V domains shown)
VH: QVQLVQSGAEVKKPGASVKVSCKASGFNIKDTYMHWVRQAPGQGLEWIGRIDLASGDSKYDPKFQGRVTMTADTSTSTVYMELSSLRSEDTAVYYCARAHFGGGNWYFDVWGQGTTVTVSS
VL: DIQLTQSPSFLSASVGDRVTITCSASSSVSYMHWYQQKPGQAPKPWIYEISKLASGVPSRFSGSGSGTEYTLTISSMQSEDFAVYYCQQWNYPLTFGQGTKLEIK
Consider B19, for which the Kd in the test with CEACAM1-his [4] and with CEACAM1-his [5] was 2.46 nM in each case.
